Measured values as given in the supplement of paper PMC5998384.

Legend:
HeLa Kyoto [1] = assay: solubility change mitosis vs G1/S (difference of NP-40 vs SDS log2 ratios) (log2 ratio difference); higher = more soluble in mitosis
HeLa Kyoto [2] = assay: solubility in G1/S (NP-40 vs SDS abundance) (log2 ratio); higher = more soluble; conditions: cell cycle stage: G1/S
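Wherever solubility change mitosis vs G1/S (difference of NP-40 vs SDS log2 ratios) is given: synchronized HeLa Kyoto cells (double thymidine block for G1/S, nocodazole release for mitosis), protein amounts in NP-40 versus SDS lysates quantified by mass spectrometry, three biological replicates.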
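Wherever solubility in G1/S (NP-40 vs SDS abundance) is given: HeLa Kyoto cells arrested at G1/S by double thymidine block, proteins quantified by TMT10plex mass spectrometry in mild NP-40 versus SDS extracts, three biological replicates.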

| Substance | solubility change mitosis (log2) (HeLa Kyoto [1]) | solubility in G1/S (log2) (HeLa Kyoto [2]) |
| --- | --- | --- |
| MTSAVVDSGGTILELSSNGVENQEESEKVSEYPAVIVEPVPSARLEQGYAAQVLVYDDETYMMQDVAEEQEVETENVETVEASVHSSNAHCTDKTIEAAEALLHMESPTCLRDSRSPVEVFVPPCVSTPEFIHAAMRPDVITETVVEVSTEESEPMDTSPIPTSPDSHEPMKKKKVGRKPKTQQSPISNGSPELGIKKKPREGKGNTTYLWEFLLDLLQDKNTCPRYIKWTQREKGIFKLVDSKAVSKLWGKHKNKPDMNYETMGRALRYYYQRGILAKVEGQRLVYQFKDMPKNIVVIDDDKSETCNEDLAGTTDEKSLERVSLSAESLLKAASSVRSGKNSSPINCSRAEKGVARVVNITSPGHDASSRSPTTTASVSATAAPRTVRVAMQVPVVMTSLGQKISTVAVQSVNAGAPLITSTSPTTATSPKVVIQTIPTVMPASTENGDKITMQPAKIITIPATQLAQCQLQTKSNLTGSGSINIVGTPLAVRALTPVSIAHGTPVMRLSMPTQQASGQTPPRVISAVIKGPEVKSEAVAKKQEHDVKTLQLVEEKPADGNKTVTHVVVVSAPSAIALPVTMKTEGLVTCEK [ELF2] | 0.0877 | 0.284 |
| MGSRPPCGATSSARRACQFPAPMAAAREPELPQEAPATEPAPPPACRFFLEGRCRFGARCRQPHPGAPAPPGREAQPEAGAKKPPLRTAADVIQRIRWDPRLDPADFSVGYVDRFLGVREEPFSAFCWDQPLAALGPGVLAVPQHRVRFFRFHGRLVWDRASRTDLVFGSGSAAGRGPTILDAPNTEGAHGAEGAEWTLAGTGQEAQAAPKRGSTRPLCTGHQEPGVEEPGELEAAQERALGTAADLGTLAPRGRLAGVTEEALKPTAATRTTLLGGKEAQALGVPGGSAETTEAEWGPAAWPEDKRARLSVAAPCQPRPTHFVALMVTEPGLQAEVTKAQEYLVHVAPHCANFLVPSQNLHLTLALLRLAGAGEEAAAIGALRRALLAPGLNAPPRLSFRKLVLLGPHVLCAPPSPTLESMAQVLSQRLEAEGLSTLQSPGQLHPHLTVAKVPHGSQVHLPKLEFTLSQEVGCQPLQTLWLCRIGRTGGPFQPLAEIRLE [LENG9] | -0.034 | 0.366 |
| MPLSSPNAAATASDMDKNSGSNSSSASSGSSKGQQPPRSASAGPAGESKPKSDGKNSSGSKRYNRKRELSYPKNESFNNQSRRSSSQKSKTFNKMPPQRGGGSSKLFSSSFNGGRRDEVAEAQRAEFSPAQFSGPKKINLNHLLNFTFEPRGQTGHFEGSGHGSWGKRNKWGHKPFNKELFLQANCQFVVSEDQDYTAHFADPDTLVNWDFVEQVRICSHEVPSCPICLYPPTAAKITRCGHIFCWACILHYLSLSEKTWSKCPICYSSVHKKDLKSVVATESHQYVVGDTITMQLMKREKGVLVALPKSKWMNVDHPIHLGDEQHSQYSKLLLASKEQVLHRVVLEEKVALEQQLAEEKHTPESCFIEAAIQELKTREEALSGLAGSRREVTGVVAALEQLVLMAPLAKESVFQPRKGVLEYLSAFDEETTEVCSLDTPSRPLALPLVEEEEAVSEPEPEGLPEACDDLELADDNLKEGTICTESSQQEPITKSGFTRLSSSPCYYFYQAEDGQHMFLHPVNVRCLVREYGSLERSPEKISATVVEIAGYSMSEDVRQRHRYLSHLPLTCEFSICELALQPPVVSKETLEMFSDDIEKRKRQRQKKAREERRRERRIEIEENKKQGKYPEVHIPLENLQQFPAFNSYTCSSDSALGPTSTEGHGALSISPLSRSPGSHADFLLTPLSPTASQGSPSFCVGSLEEDSPFPSFAQMLRVGKAKADVWPKTAPKKDENSLVPPAPVDSDGESDNSDRVPVPSFQNSFSQAIEAAFMKLDTPATSDPLSEEKGGKKRKKQKQKLLFSTSVVHTK [RNF10] | -0.000862 | -0.172 |
| MEPRRAAPGVPGWGSREAAGSASAAELVYHLAGALGTELQDLARRFGPEAAAGLVPLVVRALELLEQAAVGPAPDSLQVSAQPAEQELRRLREENERLRRELRAGPQEERALLRQLKEVTDRQRDELRAHNRDLRQRGQETEALQEQLQRLLLVNAELRHKLAAMQTQLRAAQDRERERQQPGEAATPQAKERARGQAGRPGHQHGQEPEWATAGAGAPGNPEDPAEAAQQLGRPSEAGQCRFSREEFEQILQERNELKAKVFLLKEELAYFQRELLTDHRVPGLLLEAMKVAVRKQRKKIKAKMLGTPEEAESSEDEAGPWILLSDDKGDHPPPPESKIQSFFGLWYRGKAESSEDETSSPAPSKLGGEEEAQPQSPAPDPPCSALHEHLCLGASAAPEA [RILP] | 0.11 | 0.551 |
| MDPRGILKAFPKRQKIHADASSKVLAKIPRREEGEEAEEWLSSLRAHVVRTGIGRARAELFEKQIVQHGGQLCPAQGPGVTHIVVDEGMDYERALRLLRLPQLPPGAQLVKSAWLSLCLQERRLVDVAGFSIFIPSRYLDHPQPSKAEQDASIPPGTHEALLQTALSPPPPPTRPVSPPQKAKEAPNTQAQPISDDEASDGEETQVSAADLEALISGHYPTSLEGDCEPSPAPAVLDKWVCAQPSSQKATNHNLHITEKLEVLAKAYSVQGDKWRALGYAKAINALKSFHKPVTSYQEACSIPGIGKRMAEKIIEILESGHLRKLDHISESVPVLELFSNIWGAGTKTAQMWYQQGFRSLEDIRSQASLTTQQAIGLKHYSDFLERMPREEATEIEQTVQKAAQAFNSGLLCVACGSYRRGKATCGDVDVLITHPDGRSHRGIFSRLLDSLRQEGFLTDDLVSQEENGQQQKYLGVCRLPGPGRRHRRLDIIVVPYSEFACALLYFTGSAHFNRSMRALAKTKGMSLSEHALSTAVVRNTHGCKVGPGRVLPTPTEKDVFRLLGLPYREPAERDW [POLL] | -0.00139 | 0.0728 |
| MNFTPTHTPVCRKRTVVSKRGVAVSGPTKRRGMADSLESTPLPSPEDRLAKLHPSKELLEYYQKKMAECEAENEDLLKKLELYKEACEGQHKLECDLQQREEEIAELQKALSDMQVCLFQEREHVLRLYSENDRLRIRELEDKKKIQNLLALVGTDAGEVTYFCKEPPHKVTILQKTIQAVGECEQSESSAFKADPKISKRRPSRERKESSEHYQRDIQTLILQVEALQAQLGEQTKLSREQIEGLIEDRRIHLEEIQVQHQRNQNKIKELTKNLHHTQELLYESTKDFLQLRSENQNKEKSWMLEKDNLMSKIKQYRVQCKKKEDKIGKVLPVMHESHHAQSEYIKSLKDKLVQEKKLSNMYQEQCISLEEELARIREEEGMRREIFKDRTNKMGKRLQIMTKRYEALERRRILEVEGFKTDIKVLRQKLKDLEQMLYKATVNARANQDLALLCEVRDSNRRAHKIQGELKNLKSKVFGLENELRLC [CCDC77] | 0.373 | -0.0939 |
| NES | 0.912 | -1.35 |
| MSGGEVVCSGWLRKSPPEKKLKRYAWKRRWFVLRSGRLTGDPDVLEYYKNDHAKKPIRIIDLNLCQQVDAGLTFNKKEFENSYIFDINTIDRIFYLVADSEEEMNKWVRCICDICGFNPTEEDPVKPPGSSLQAPADLPLAINTAPPSTQADSSSATLPPPYQLINVPPHLETLGIQEDPQDYLLLINCQSKKPEPTRTHADSAKSTSSETDCNDNVPSHKNPASSQSKHGMNGFFQQQMIYDSPPSRAPSASVDSSLYNLPRSYSHDVLPKVSPSSTEADGELYVFNTPSGTSSVETQMRHVSISYDIPPTPGNTYQIPRTFPEGTLGQTSKLDTIPDIPPPRPPKPHPAHDRSPVETCSIPRTASDTDSSYCIPTAGMSPSRSNTISTVDLNKLRKDASSQDCYDIPRAFPSDRSSSLEGFHNHFKVKNVLTVGSVSSEELDENYVPMNPNSPPRQHSSSFTEPIQEANYVPMTPGTFDFSSFGMQVPPPAHMGFRSSPKTPPRRPVPVADCEPPPVDRNLKPDRKVKPAPLEIKPLPEWEELQAPVRSPITRSFARDSSRFPMSPRPDSVHSTTSSSDSHDSEENYVPMNPNLSSEDPNLFGSNSLDGGSSPMIKPKGDKQVEYLDLDLDSGKSTPPRKQKSSGSGSSVADERVDYVVVDQQKTLALKSTREAWTDGRQSTESETPAKSVK [GAB1] | -0.296 | 0.368 |
| MGSAKSVPVTPARPPPHNKHLARVADPRSPSAGILRTPIQVESSPQPGLPAGEQLEGLKHAQDSDPRSPTLGIARTPMKTSSGDPPSPLVKQLSEVFETEDSKSNLPPEPVLPPEAPLSSELDLPLGTQLSVEEQMPPWNQTEFPSKQVFSKEEARQPTETPVASQSSDKPSRDPETPRSSGSMRNRWKPNSSKVLGRSPLTILQDDNSPGTLTLRQGKRPSPLSENVSELKEGAILGTGRLLKTGGRAWEQGQDHDKENQHFPLVES [CDCA3] | 0.957 | -0.032 |
| MAAQIPESDQIKQFKEFLGTYNKLTETCFLDCVKDFTTREVKPEETTCSEHCLQKYLKMTQRISMRFQEYHIQQNEALAAKAGLLGQPR [TIMM9] | 0.239 | -0.307 |
| MDNAVDGLDKASIANSDGPTAGSQTPPFKRKGKLSTIGKIFKPWKWRKKKTSDKFRETSAVLERKISTRQSREELIRRGVLKELPDQDGDVTVNFENSNGHMIPIGEESTREENVVKSEEGNGSVSEKTPPLEEQAEDKKENTENHSETPAAPALPPSAPPKPRPKPKPKKSPVPPKGATAGASHKGDEVPPIKKNTKAPGKQAPVPPPKPASRNTTREAAGSSHSKKTTGSKASASPSTSSTSSRPKASKETVSSKAGTVGTTKGKRKTDKQPITSHLSSDTTTSGTSDLKGEPAETRVESFKLEQTVPGAEEQNTGKFKSMVPPPPVAPAPSPLAPPLPLEDQCITASDTPVVLVSVGADLPVSALDPSQLLWAEEPTNRTTLYSGTGLSVNRENAKCFTTKEELGKTVPQLLTPGLMGESSESFSASEDEGHREYQANDSDSDGPILYTDDEDEDEDEDGSGESALASKIRRRDTLAIKLGNRPSKKELEDKNILQRTSEEERQEIRQQIGTKLVRRLSQRPTTEELEQRNILKQKNEEEEQEAKMELKRRLSRKLSLRPTVAELQARRILRFNEYVEVTDSPDYDRRADKPWARLTPADKAAIRKELNEFKSTEMEVHEESRQFTRFHRP [PHACTR2] | -0.286 | 0.45 |
| MSRLEAKKPSLCKSEPLTTERVRTTLSVLKRIVTSCYGPSGRLKQLHNGFGGYVCTTSQSSALLSHLLVTHPILKILTASIQNHVSSFSDCGLFTAILCCNLIENVQRLGLTPTTVIRLNKHLLSLCISYLKSETCGCRIPVDFSSTQILLCLVRSILTSKPACMLTRKETEHVSALILRAFLLTIPENAEGHIILGKSLIVPLKGQRVIDSTVLPGILIEMSEVQLMRLLPIKKSTALKVALFCTTLSGDTSDTGEGTVVVSYGVSLENAVLDQLLNLGRQLISDHVDLVLCQKVIHPSLKQFLNMHRIIAIDRIGVTLMEPLTKMTGTQPIGSLGSICPNSYGSVKDVCTAKFGSKHFFHLIPNEATICSLLLCNRNDTAWDELKLTCQTALHVLQLTLKEPWALLGGGCTETHLAAYIRHKTHNDPESILKDDECTQTELQLIAEAFCSALESVVGSLEHDGGEILTDMKYGHLWSVQADSPCVANWPDLLSQCGCGLYNSQEELNWSFLRSTRRPFVPQSCLPHEAVGSASNLTLDCLTAKLSGLQVAVETANLILDLSYVIEDKN [MKKS] | 0.46 | -0.925 |
| MAEGSRGGPTCSGVGGRQDPVSGSGGCNFPEYELPELNTRAFHVGAFGELWRGRLRGAGDLSLREPPASALPGSQAADSDREDAAVARDLDCSLEAAAELRAVCGLDKLKCLEDGEDPEVIPENTDLVTLGVRKRFLEHREETITIDRACRQETFVYEMESHAIGKKPENSADMIEEGELILSVNILYPVIFHKHKEHKPYQTMLVLGSQKLTQLRDSIRCVSDLQIGGEFSNTPDQAPEHISKDLYKSAFFYFEGTFYNDKRYPECRDLSRTIIEWSESHDRGYGKFQTARMEDFTFNDLCIKLGFPYLYCHQGDCEHVIVITDIRLVHHDDCLDRTLYPLLIKKHWLWTRKCFVCKMYTARWVTNNDSFAPEDPCFFCDVCFRMLHYDSEGNKLGEFLAYPYVDPGTFN [SNAPC3] | -0.167 | -0.0618 |
